Assay results as given in paper PMC10397247.
Where two headings read alike, the source gives them in different places.

Key:
4H497-AA = biological target: T1, 4H497-AA; experiment: two-hybrid library CCmax; conditions: mean of both orientations;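 also: natural log of median RNA to DNA barcode read ratio; higher means stronger binding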
T1 chain: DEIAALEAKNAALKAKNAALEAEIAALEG

4H2991-AA = biological target: T2, 4H2991-AA; experiment: two-hybrid library CCmax; conditions: mean of both orientations;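 also: natural log of median RNA to DNA barcode read ratio; higher means stronger binding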
T2 chain: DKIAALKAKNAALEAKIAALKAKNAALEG

4H971-AA = biological target: T3, 4H971-AA; experiment: two-hybrid library CCmax; conditions: mean of both orientations;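 also: natural log of median RNA to DNA barcode read ratio; higher means stronger binding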
T3 chain: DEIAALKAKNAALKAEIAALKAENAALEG

4H3666-AA = biological target: T4, 4H3666-AA; experiment: two-hybrid library CCmax; conditions: mean of both orientations;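 also: natural log of median RNA to DNA barcode read ratio; higher means stronger binding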
T4 chain: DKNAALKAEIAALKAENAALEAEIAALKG

4H3591-AA = biological target: T5, 4H3591-AA; experiment: two-hybrid library CCmax; conditions: mean of both orientations;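 also: natural log of median RNA to DNA barcode read ratio; higher means stronger binding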
T5 chain: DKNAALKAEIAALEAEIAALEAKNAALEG

4H3102-AA = biological target: T6, 4H3102-AA; experiment: two-hybrid library CCmax; conditions: mean of both orientations;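 also: natural log of median RNA to DNA barcode read ratio; higher means stronger binding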
T6 chain: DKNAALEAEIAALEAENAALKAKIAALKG

4H428-AA = biological target: T7, 4H428-AA; experiment: two-hybrid library CCmax; conditions: mean of both orientations
T7 chain: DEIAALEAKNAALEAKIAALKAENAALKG

4H656-AA = biological target: T8, 4H656-AA; experiment: two-hybrid library CCmax; conditions: mean of both orientations
T8 chain: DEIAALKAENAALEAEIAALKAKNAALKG

4H3709-AA = biological target: T9, 4H3709-AA; experiment: two-hybrid library CCmax; conditions: mean of both orientations
T9 chain: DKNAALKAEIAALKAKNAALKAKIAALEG

4H2713-AA = biological target: T10, 4H2713-AA; experiment: two-hybrid library CCmax
T10 chain: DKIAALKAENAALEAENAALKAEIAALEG

4H3939-AA = biological target: T11, 4H3939-AA; experiment: two-hybrid library CCmax; conditions: mean of both orientations
T11 chain: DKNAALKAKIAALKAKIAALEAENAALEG

4H3121-AA = biological target: T12, 4H3121-AA; experiment: two-hybrid library CCmax; conditions: mean of both orientations
T12 chain: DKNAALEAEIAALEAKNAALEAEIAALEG

4H391-AA = biological target: T13, 4H391-AA; experiment: two-hybrid library CCmax; conditions: mean of both orientations
T13 chain: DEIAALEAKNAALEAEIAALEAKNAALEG

4H3029-AA = biological target: T14, 4H3029-AA; experiment: two-hybrid library CCmax; conditions: mean of both orientations
T14 chain: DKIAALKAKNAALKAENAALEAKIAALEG

4H3446-AA = biological target: T15, 4H3446-AA; experiment: two-hybrid library CCmax; conditions: mean of both orientations
T15 chain: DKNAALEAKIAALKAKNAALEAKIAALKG

4H3628-AA = biological target: T16, 4H3628-AA; experiment: two-hybrid library CCmax; conditions: mean of both orientations
T16 chain: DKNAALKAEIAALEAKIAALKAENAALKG

4H478-AA = biological target: T17, 4H478-AA; experiment: two-hybrid library CCmax; conditions: mean of both orientations
T17 chain: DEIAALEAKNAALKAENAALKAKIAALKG

4H2742-AA = biological target: T18, 4H2742-AA; experiment: two-hybrid library CCmax; conditions: mean of both orientations
T18 chain: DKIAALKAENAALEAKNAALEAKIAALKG

4H3066-AA = biological target: T19, 4H3066-AA; experiment: two-hybrid library CCmax; conditions: mean of both orientations
T19 chain: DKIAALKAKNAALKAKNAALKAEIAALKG

4H2948-AA = biological target: T20, 4H2948-AA; experiment: two-hybrid library CCmax; conditions: mean of both orientations
T20 chain: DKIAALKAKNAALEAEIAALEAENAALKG

4H3417-AA = biological target: T21, 4H3417-AA; experiment: two-hybrid library CCmax; conditions: mean of both orientations
T21 chain: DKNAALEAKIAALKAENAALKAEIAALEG

4H3920-AA = biological target: T22, 4H3920-AA; experiment: two-hybrid library CCmax; conditions: mean of both orientations
T22 chain: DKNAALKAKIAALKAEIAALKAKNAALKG

4H675-AA = biological target: T23, 4H675-AA; experiment: two-hybrid library CCmax; conditions: mean of both orientations
T23 chain: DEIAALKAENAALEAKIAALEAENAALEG

zCON9_D = biological target: T24, zCON9_D; experiment: two-hybrid library CCmax
T24 chain: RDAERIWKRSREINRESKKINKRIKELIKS

zCON9_A = biological target: T25, zCON9_A; experiment: two-hybrid library CCmax
T25 chain: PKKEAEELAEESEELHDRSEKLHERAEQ

P9-AA = biological target: T26, P9-AA; experiment: two-hybrid library CCmax
T26 chain: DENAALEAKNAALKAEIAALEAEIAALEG

zCON9_B = biological target: T27, zCON9_B; experiment: two-hybrid library CCmax
T27 chain: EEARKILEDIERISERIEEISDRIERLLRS

P2-AA = biological target: T28, P2-AA; experiment: two-hybrid library CCmax; conditions: mean of both orientations
T28 chain: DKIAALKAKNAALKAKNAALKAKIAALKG

P11-AA = biological target: T29, P11-AA; experiment: two-hybrid library CCmax
T29 chain: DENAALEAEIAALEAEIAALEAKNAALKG

P4-AA = biological target: T30, P4-AA; experiment: two-hybrid library CCmax; conditions: mean of both orientations
T30 chain: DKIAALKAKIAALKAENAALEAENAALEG

P3-AA = biological target: T31, P3-AA; experiment: two-hybrid library CCmax; conditions: mean of both orientations
T31 chain: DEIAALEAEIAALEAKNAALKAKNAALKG

P8-AA = biological target: T32, P8-AA; experiment: two-hybrid library CCmax
T32 chain: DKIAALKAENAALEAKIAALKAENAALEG

P12-AA = biological target: T33, P12-AA; experiment: two-hybrid library CCmax
T33 chain: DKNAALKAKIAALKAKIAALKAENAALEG

P7-AA = biological target: T34, P7-AA; experiment: two-hybrid library CCmax; conditions: mean of both orientations
T34 chain: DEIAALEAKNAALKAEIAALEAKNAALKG

O8-bS = biological target: T35, O8-bS; experiment: two-hybrid library CCNG1
T35 chain: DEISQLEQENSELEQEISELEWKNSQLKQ

O9-bS = biological target: T36, O9-bS; experiment: two-hybrid library CCNG1
T36 chain: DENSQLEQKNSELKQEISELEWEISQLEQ

DKIAALKAENAALEAENAALKAEIAALEG [4H2713-AA]
interaction score (4H497-AA): 0.0354
interaction score (4H2991-AA): -1.79
interaction score (4H971-AA): -1.57
interaction score (4H3666-AA): -1.39
interaction score (4H3591-AA): -1.25
interaction score (4H3102-AA): -0.638
interaction score (4H428-AA): -1.87
interaction score (4H656-AA): -1.66
interaction score (4H3709-AA): -1.95
interaction score (4H2713-AA): 0.691
interaction score (4H3939-AA): -1.59
interaction score (4H3121-AA): -1.64
interaction score (4H391-AA): -1.91
interaction score (4H3029-AA): 1.75
interaction score (4H3446-AA): -1.15
interaction score (4H3628-AA): -1.22
interaction score (4H478-AA): 2.27
interaction score (4H2742-AA): -0.508
interaction score (4H3066-AA): 1.76
interaction score (4H2948-AA): -1.84
interaction score (4H3417-AA): -1.19
interaction score (4H3920-AA): -1.61
interaction score (4H675-AA): -1.83

DENAALEAKNAALKAEIAALEAEIAALEG [P9-AA]
interaction score (zCON9_D; mean of both orientations): -1.94
interaction score (zCON9_A): -1.13
interaction score (P9-AA): -1.97
interaction score (zCON9_B): -1.59

DENAALEAEIAALEAEIAALEAKNAALKG [P11-AA]
interaction score (zCON9_D): -1.93
interaction score (zCON9_A): -1.48
interaction score (P9-AA; mean of both orientations): -1.18
interaction score (P2-AA): 0.243
interaction score (P11-AA): -1.19
interaction score (P4-AA): 1.68
interaction score (P3-AA): -1.5
interaction score (P8-AA; mean of both orientations): -1.23
interaction score (P12-AA; mean of both orientations): 1.97
interaction score (zCON9_B; mean of both orientations): -0.891
interaction score (P7-AA): -1.07

DKNAALKAKIAALKAKIAALKAENAALEG [P12-AA]
interaction score (zCON9_D; mean of both orientations): -2.06
interaction score (zCON9_A): -1.73
interaction score (P9-AA; mean of both orientations): 0.219
interaction score (P2-AA): -1.74
interaction score (P4-AA): -1.68
interaction score (P3-AA): 1.42
interaction score (P8-AA; mean of both orientations): -1.95
interaction score (P12-AA): -1.64
interaction score (zCON9_B; mean of both orientations): 0.333
interaction score (P7-AA): -1.45

DKIAALKAENAALEAKIAALKAENAALEG [P8-AA]
interaction score (zCON9_D; mean of both orientations): -1.98
interaction score (zCON9_A): -1.74
interaction score (P9-AA; mean of both orientations): -0.207
interaction score (P8-AA): -1.57
interaction score (zCON9_B; mean of both orientations): -1.66

DEISQLEQENSELEQEISELEWKNSQLKQ [O8-bS]
interaction score (O8-bS): -2.12
interaction score (O9-bS): -0.376

DENSQLEQKNSELKQEISELEWEISQLEQ [O9-bS]
interaction score (O9-bS; mean of both orientations): -1.16
